Assay results taken from the Human Domainome abundance scans (Beltran et al. 2025).
± gives the uncertainty stated by the source.

B1: POU domain, class 4, transcription factor 3, residues 185 to 256; numbered along this chain, Q15319 (parent)
chain: RELEAFAERFKQRRIKLGVTQADVGAALANLKIPGVGSLSQSTICRFESLTLSHNNMIALKPVLQAWLEEAE

Variants of: B1
Assay: abundance fitness (aPCA) (normalised: wild type 0, dead -1); higher = more abundant; growth selection in yeast, the domain comes from the species named
Settings: Homo sapiens

Variant | abundance fitness
A22N | -0.02 ± 0.074
A22K | -0.263 ± 0.23
A22F | -0.163 ± 0.034
I58K | -0.058 ± 0.12
I58H | -0.033 ± 0.1
I58L | 0.094 ± 0.065
L60Q | -0.376 ± 0.24
L60R | -0.845 ± 0.25
L68F | -0.585 ± 0.067
L68N | -0.912 ± 0.12
E4F | 0.03 ± 0.055
R13P | -0.938 ± 0.28
R13C | -0.265 ± 0.043
G25L | -0.159 ± 0.097
G25C | 0.143 ± 0.099
G25R | -0.203 ± 0.12
S38Q | 0.029 ± 0.03
S38W | -0.389 ± 0.22
A66V | -0.429 ± 0.2
A66P | -0.65 ± 0.14
A66Q | 0.042 ± 0.2

Variant | abundance fitness
A59L | -0.393 ± 0.39
A71W | -0.281 ± 0.056
A71K | 0.002 ± 0.027
F47G | -1.01 ± 0.23
F47N | -1.09 ± 0.27
N56I | -0.157 ± 0.21
N30I | -0.361 ± 0.15
N30T | -0.005 ± 0.11
N30P | -0.267 ± 0.058
N30V | -0.177 ± 0.046
N30W | 0.007 ± 0.19
E70G | -0.095 ± 0.039
E70R | -0.036 ± 0.033
E70H | -0.014 ± 0.064
E70Y | -0.245 ± 0.06
E70M | -0.253 ± 0.048
E70A | -0.098 ± 0.042
K32L | -0.146 ± 0.03
A26Y | -0.144 ± 0.044
A26P | -0.472 ± 0.053
A26K | 0.04 ± 0.047

Variant | abundance fitness
A26W | -0.152 ± 0.036
A26F | -0.113 ± 0.046
A26G | -0.15 ± 0.03
A26E | -0.051 ± 0.044
A26C | -0.08 ± 0.04
R9S | 0.007 ± 0.083
R9E | 0.033 ± 0.075
R9K | 0.022 ± 0.047
E2N | -0.207 ± 0.14
E2I | -0.664 ± 0.37
C45Y | -0.01 ± 0.059
C45N | -0.007 ± 0.094
C45T | 0.012 ± 0.064
C45W | -0.234 ± 0.32
I15A | -0.093 ± 0.15
I15M | 0.024 ± 0.061
I15W | -0.527 ± 0.32
A29M | -0.119 ± 0.14
A29K | 0.023 ± 0.056
R1L | -0.125 ± 0.049
L52M | -0.55 ± 0.47

Variant | abundance fitness
L28F | -0.239 ± 0.2
L28C | -0.443 ± 0.21
T43M | -0.053 ± 0.086
T43P | -0.836 ± 0.064
T43H | -0.296 ± 0.17
E8G | -0.098 ± 0.051
L50A | 0.068 ± 0.039
L50E | -0.154 ± 0.063
S53G | -0.061 ± 0.046
S53K | -0.222 ± 0.093
T20E | -0.18 ± 0.043
T20A | -0.229 ± 0.031
T20I | -0.623 ± 0.37
P34A | 0.029 ± 0.15
P34R | -0.353 ± 0.12
P34Q | -0.458 ± 0.19
K16M | 0.008 ± 0.039
K16F | -0.284 ± 0.058
K16W | -0.224 ± 0.037
K16A | 0.055 ± 0.039
